± gives the uncertainty stated by the source.
B1: RUN and FYVE domain-containing protein 1, residues 639 to 698; numbered along this chain, Q96T51 (parent)
chain: WLKDDEATHCRQCEKEFSISRRKHHCRNCGHIFCNTCSSNELALPSYPKPVRVCDSCHTL

Variants of: B1
Assay: abundance fitness (aPCA) (normalised: wild type 0, dead -1); higher = more abundant; growth selection in yeast, the domain comes from the species named
Details: Homo sapiens
For WLKDDEATHCRQCEKEFSISRRKHHCRNCEHIFCNTCSSNELALPSYPKPVRVCDSCHTL [G30E], the abundance fitness was -0.239 ± 0.067.
WLKDDEATHCRQCEKEFSISRRKHHCRNCHHIFCNTCSSNELALPSYPKPVRVCDSCHTL [G30H] gave an abundance fitness of -0.428 ± 0.11.
In the case of WLKDDEATHCRQCEKEFSISRRKHHCRNCFHIFCNTCSSNELALPSYPKPVRVCDSCHTL [G30F], the abundance fitness is reported as -0.945 ± 0.17.
WLKDDEATHCRQCEKEFSISRRKHHCRNCVHIFCNTCSSNELALPSYPKPVRVCDSCHTL [G30V] showed an abundance fitness of -0.764 ± 0.062.
WLKDDEATHCRQCEKEFSISRRKHHCRNCAHIFCNTCSSNELALPSYPKPVRVCDSCHTL [G30A] gave an abundance fitness of -0.392 ± 0.072.
For WLKDDEATHCRQCEKEFSISRRKHHCRNCPHIFCNTCSSNELALPSYPKPVRVCDSCHTL [G30P], the abundance fitness was -0.754 ± 0.093.
For WLKDDEATHCRQCEKEFSISRRKHHCRNCSHIFCNTCSSNELALPSYPKPVRVCDSCHTL [G30S], the abundance fitness was -0.503 ± 0.045.
Variant WLKDDEATHCRQCEKEFSISRRKHHCRNCCHIFCNTCSSNELALPSYPKPVRVCDSCHTL [G30C] has an abundance fitness of -0.453 ± 0.075.
With WLKDDEATHCRQCEKEFSISRRKHHCRNCTHIFCNTCSSNELALPSYPKPVRVCDSCHTL [G30T] the abundance fitness was -0.77 ± 0.072.
In the case of WLKDDEATHCRQCEKEFSISRRKHHCRNCKHIFCNTCSSNELALPSYPKPVRVCDSCHTL [G30K], the abundance fitness is reported as -1.17 ± 0.1.
WLKDDEATHCRQCEKEFSISRRKHHCRNCRHIFCNTCSSNELALPSYPKPVRVCDSCHTL [G30R] gave an abundance fitness of -0.428 ± 0.039.
With WLKDDEATHCRQCEKEFSISRRKHHCRNCNHIFCNTCSSNELALPSYPKPVRVCDSCHTL [G30N] the abundance fitness was -1.04 ± 0.17.
Work on WLKDDEATHCRQCEKEFSISRRKHHCRNCDHIFCNTCSSNELALPSYPKPVRVCDSCHTL [G30D] yielded an abundance fitness of -0.414 ± 0.099.
For WLKDDEATHCRQCEKEFSISRRKHHCRNCMHIFCNTCSSNELALPSYPKPVRVCDSCHTL [G30M], the abundance fitness was -0.264 ± 0.046.
Variant WLKDDEATHCRQCEKEFSISRRKHHCRNCWHIFCNTCSSNELALPSYPKPVRVCDSCHTL [G30W] has an abundance fitness of -0.235 ± 0.038.
Variant WLKDDEATHCRQCEKEFSISRRKHHCRNCYHIFCNTCSSNELALPSYPKPVRVCDSCHTL [G30Y] has an abundance fitness of -0.56 ± 0.1.
With WLKDDEATHCRQCEKEFSISRRKHHCRNCQHIFCNTCSSNELALPSYPKPVRVCDSCHTL [G30Q] the abundance fitness was -0.326 ± 0.055.
In the case of WLKDDEATHCRQCEKEFSISRRKHHCRCCGHIFCNTCSSNELALPSYPKPVRVCDSCHTL [N28C], the abundance fitness is reported as 0.058 ± 0.09.
Work on WLKDDEATHCRQCEKEFSISRRKHHCRSCGHIFCNTCSSNELALPSYPKPVRVCDSCHTL [N28S] yielded an abundance fitness of -0.099 ± 0.038.
With WLKDDEATHCRQCEKEFSISRRKHHCRQCGHIFCNTCSSNELALPSYPKPVRVCDSCHTL [N28Q] the abundance fitness was -0.147 ± 0.054.
Work on WLKDDEATHCRQCEKEFSISRRKHHCRACGHIFCNTCSSNELALPSYPKPVRVCDSCHTL [N28A] yielded an abundance fitness of -0.046 ± 0.037.
With WLKDDEATHCRQCEKEFSISRRKHHCRVCGHIFCNTCSSNELALPSYPKPVRVCDSCHTL [N28V] the abundance fitness was -0.285 ± 0.044.
For WLKDDEATHCRQCEKEFSISRRKHHCRHCGHIFCNTCSSNELALPSYPKPVRVCDSCHTL [N28H], the abundance fitness was 0.05 ± 0.064.
Work on WLKDDEATHCRQCEKEFSISRRKHHCRGCGHIFCNTCSSNELALPSYPKPVRVCDSCHTL [N28G] yielded an abundance fitness of -0.1 ± 0.044.
In the case of WLKDDEATHCRQCEKEFSISRRKHHCRMCGHIFCNTCSSNELALPSYPKPVRVCDSCHTL [N28M], the abundance fitness is reported as -0.252 ± 0.05.
For WLKDDEATHCRQCEKEFSISRRKHHCRWCGHIFCNTCSSNELALPSYPKPVRVCDSCHTL [N28W], the abundance fitness was -0.13 ± 0.043.
WLKDDEATHCRQCEKEFSISRRKHHCRKCGHIFCNTCSSNELALPSYPKPVRVCDSCHTL [N28K] showed an abundance fitness of -0.202 ± 0.066.
WLKDDEATHCRQCEKEFSISRRKHHCRTCGHIFCNTCSSNELALPSYPKPVRVCDSCHTL [N28T] gave an abundance fitness of -0.306 ± 0.059.
WLKDDEATHCRQCEKEFSISRRKHHCRFCGHIFCNTCSSNELALPSYPKPVRVCDSCHTL [N28F] gave an abundance fitness of -0.177 ± 0.12.
WLKDDEATHCRQCEKEFSISRRKHHCRPCGHIFCNTCSSNELALPSYPKPVRVCDSCHTL [N28P] showed an abundance fitness of -0.244 ± 0.069.
Variant WLKDDEATHCRQCEKEFSISRRKHHCRICGHIFCNTCSSNELALPSYPKPVRVCDSCHTL [N28I] has an abundance fitness of -0.261 ± 0.065.
WLKDDEATHCRQCEKEFSISRRKHHCRYCGHIFCNTCSSNELALPSYPKPVRVCDSCHTL [N28Y] gave an abundance fitness of -0.283 ± 0.065.
Variant WLKDDEATHCRQCEKEFSISRRKHHCRDCGHIFCNTCSSNELALPSYPKPVRVCDSCHTL [N28D] has an abundance fitness of -0.19 ± 0.08.
WLKDDEATHCRQCEKEFSISRRKHHCRRCGHIFCNTCSSNELALPSYPKPVRVCDSCHTL [N28R] gave an abundance fitness of -0.176 ± 0.034.
WLKDDEATHCRQCEKEFSISRRKHHCRLCGHIFCNTCSSNELALPSYPKPVRVCDSCHTL [N28L] gave an abundance fitness of -0.342 ± 0.043.
For WLKDDEATHCRQCEKEFSISRRKHHCRNFGHIFCNTCSSNELALPSYPKPVRVCDSCHTL [C29F], the abundance fitness was -0.871 ± 0.098.
Variant WLKDDEATHCRQCEKEFSISRRKHHCRNTGHIFCNTCSSNELALPSYPKPVRVCDSCHTL [C29T] has an abundance fitness of -0.818 ± 0.1.
WLKDDEATHCRQCEKEFSISRRKHHCRNAGHIFCNTCSSNELALPSYPKPVRVCDSCHTL [C29A] gave an abundance fitness of -1.03 ± 0.091.
In the case of WLKDDEATHCRQCEKEFSISRRKHHCRNWGHIFCNTCSSNELALPSYPKPVRVCDSCHTL [C29W], the abundance fitness is reported as -1.03 ± 0.097.
With WLKDDEATHCRQCEKEFSISRRKHHCRNGGHIFCNTCSSNELALPSYPKPVRVCDSCHTL [C29G] the abundance fitness was -1 ± 0.075.
With WLKDDEATHCRQCEKEFSISRRKHHCRNHGHIFCNTCSSNELALPSYPKPVRVCDSCHTL [C29H] the abundance fitness was -1.25 ± 0.26.
WLKDDEATHCRQCEKEFSISRRKHHCRNPGHIFCNTCSSNELALPSYPKPVRVCDSCHTL [C29P] gave an abundance fitness of -0.835 ± 0.081.
In the case of WLKDDEATHCRQCEKEFSISRRKHHCRNSGHIFCNTCSSNELALPSYPKPVRVCDSCHTL [C29S], the abundance fitness is reported as -1.01 ± 0.1.
Variant WLKDDEATHCRQCEKEFSISRRKHHCRNKGHIFCNTCSSNELALPSYPKPVRVCDSCHTL [C29K] has an abundance fitness of -1.11 ± 0.23.

Source: the Human Domainome abundance scans (Beltran et al. 2025)
